Test results from patent publication US20230303695A1 (SHANGHAI XBH BIOTECHNOLOGY, published 2023).

What was measured:
[1] = biological target: T1, IGSF8 extracellular domain (ED) (Homo sapiens (Human), UniProt Q969P0 28-579); assay: ELISA on IGSF8 extracellular domain
T1 construct: also called IGSF8 ECD
T1 sequence: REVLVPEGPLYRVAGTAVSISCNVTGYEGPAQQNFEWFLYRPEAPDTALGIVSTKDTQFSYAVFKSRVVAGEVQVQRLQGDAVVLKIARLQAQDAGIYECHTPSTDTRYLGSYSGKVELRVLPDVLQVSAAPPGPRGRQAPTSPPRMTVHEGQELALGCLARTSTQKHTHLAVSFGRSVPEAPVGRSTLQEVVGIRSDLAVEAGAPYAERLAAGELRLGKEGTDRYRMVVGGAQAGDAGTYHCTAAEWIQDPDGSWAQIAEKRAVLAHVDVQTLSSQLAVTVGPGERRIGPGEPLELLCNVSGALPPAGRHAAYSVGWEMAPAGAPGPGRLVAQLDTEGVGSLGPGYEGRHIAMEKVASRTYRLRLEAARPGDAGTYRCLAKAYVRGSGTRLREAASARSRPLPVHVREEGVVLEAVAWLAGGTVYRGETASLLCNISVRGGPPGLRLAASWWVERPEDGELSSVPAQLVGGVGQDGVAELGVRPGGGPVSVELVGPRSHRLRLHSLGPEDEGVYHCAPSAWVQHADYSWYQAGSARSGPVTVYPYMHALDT

[2] = biological target: T2, recombinant human IGSF8 extracellular domain tagged by a human Fc region (IGSF8-hFc) (human, UniProt Q969P0 28-579, biotin label in Examples 17, 18 and 28 (site not given)); assay: SPR, Ab captured
T2 construct: also called IGSF8-Fc fusion protein; IGSF8-hFc-biotin; not shown: human Fc region
T2 sequence: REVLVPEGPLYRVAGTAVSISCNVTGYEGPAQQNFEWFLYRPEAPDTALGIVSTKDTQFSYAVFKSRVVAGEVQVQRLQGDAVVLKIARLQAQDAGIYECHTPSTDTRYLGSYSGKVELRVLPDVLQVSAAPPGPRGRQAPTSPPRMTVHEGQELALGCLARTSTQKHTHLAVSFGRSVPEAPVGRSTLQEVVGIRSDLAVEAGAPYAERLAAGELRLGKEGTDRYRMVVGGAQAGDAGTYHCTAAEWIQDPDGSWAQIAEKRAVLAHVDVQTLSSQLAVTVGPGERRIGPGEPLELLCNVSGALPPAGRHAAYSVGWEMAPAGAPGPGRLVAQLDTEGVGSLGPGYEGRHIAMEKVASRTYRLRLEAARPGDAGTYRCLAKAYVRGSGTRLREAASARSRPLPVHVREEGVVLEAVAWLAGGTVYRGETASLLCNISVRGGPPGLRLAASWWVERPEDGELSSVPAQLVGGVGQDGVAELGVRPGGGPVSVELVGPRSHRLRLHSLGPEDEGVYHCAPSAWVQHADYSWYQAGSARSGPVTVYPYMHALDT
Method: The binding affinities of the L1 and L2 antibodies to IGSF8 recombinant protein were determined by surface plasmon resonance (SPR). Briefly, anti-human Fab antibody was imobilized on acarboxyl-derivatized SPR chip surface, and the antibodies were captured on the resulting surface at 5 μg/ml for 30 seconds.

B1: Antibody C8 (antibody, V domains shown)
VH: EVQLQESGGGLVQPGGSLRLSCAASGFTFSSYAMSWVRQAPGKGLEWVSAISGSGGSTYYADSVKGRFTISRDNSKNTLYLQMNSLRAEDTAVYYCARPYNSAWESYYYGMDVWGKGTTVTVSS
VL: DIQMTQSPSSVSASVGDRVTITCRASQGISSRLAWYQQKPGKAPKLLIYAASSLQSGVPSRFSGSGSGTDFTLTISSLQPEDFATYYCQQRHSYPITFGQGTRLEIKR
notes: also called anti-IGSF8 C8
binding result [1]: binds

B2: L1-31 (antibody, V domains shown)
VH: QVQLVESGGGVVQPGRSLRLSCAASGFTFSTYGMHWVRQAPGKGLEWVAVIWDGGKYKYYGDSVKGRFTISRDNSKNTLYLQMNSLRAEDTAVYYCARDGSGWGYAFDIWGQGTLVTVSS
VL: DIQLTQSPSSLSASVGDRVTITCQASQDIGPWLNWYQHKPGKAPKPLVFRSPNLETGVPSRFSASGSGTDFTLTISSLQPEDFATYYCQQYDSFPYTFGQGTKVEIK
Kd [2]: 0.00371 nM
koff [2]: 7.8e-07 s⁻¹
kon [2]: 210000 M⁻¹ s⁻¹

B3: L1-32 (antibody, V domains shown)
VH: QVQLVESGGGVVQPGRSLRLSCAASGFTFSTYGMHWVRQAPGKGLEWVAVIWDGGSYKYYGDSVKGRFTISRDNSKNTLYLQMNSLRAEDTAVYYCARDGSGWGYAFDIWGQGTLVTVSS
VL: DIQLTQSPSSLSASVGDRVTITCQASQDIGPWLNWYQHKPGKAPKPLVFGSPNLETGVPSRFSASGSGTDFTLTISSLQPEDFATYYCQQYDSFPYTFGQGTKVEIK
Kd [2]: 0.021 nM
koff [2]: 6.56e-06 s⁻¹
kon [2]: 312000 M⁻¹ s⁻¹

B4: L1-33 (antibody, V domains shown)
VH: QVQLVESGGGVVQPGRSLRLSCAASGFTFSTYGMHWVRQAPGKGLEWVAVIWDGGKYKYYGDSVKGRFTISRDNSKNTLYLQMNSLRAEDTAVYYCARDGSGWGYAFDIWGQGTLVTVSS
VL: DIQLTQSPSSLSASVGDRVTITCQASQDIGPWLNWYQHKPGKAPKPLVFGSPNLETGVPSRFSASGSGTDFTLTISSLQPEDFATYYCQQYDSFPYTFGQGTKVEIK
Kd [2]: 0.029 nM
koff [2]: 8.01e-06 s⁻¹
kon [2]: 276000 M⁻¹ s⁻¹

B5: Antibody C3 (antibody, V domains shown)
VH: QVQLVESGGGLVQPGGSLRLSCAASGFTFSHYPMRWVRQAPGKGLEWVSSIRRSGGRTKYADSVKGRFTISRDNSKNTLYLQMNSLRAEDTAVYYCARDATGRHYNGMDVWGKGTTVTVSS
VL: DVVMTQSPSSLSASVGDRVTITCRTSQVIGTSLNWYQQKPGRAPRLLIYSASNLQSGVPSRFSGSGHGTQFTLTISSLQPEDFATYSCQQSSRVPHTFGQGTKLEMRR
notes: also called anti-IGSF8 C3
binding result [1]: binds

B6: Antibody C6 (antibody, V domains shown)
VH: EVQLVESGGGLVQPGGSLRLSCAASGFTFSPYRMHWVRQAPGKGLEWVSRINPSGGRTWYADSVKGRFTISRDNSKNTLYLQMNSLRAEDTAVYYCARDATGRHYNGMDVWGQGTMVTVSS
VL: DIQMTQSPSTLSASVGDRVTITCRASQSINKWLAWYQQKPGKAPKLLIYKASTLESGVPSRFSGSGSGTDFTLTINSLQPEDFATYYCQQSHSAPWTFGQGTKVEIER
notes: also called anti-IGSF8 C6
binding result [1]: binds

B7: Antibody C5 (antibody, V domains shown)
VH: EVQLVQSGGGLVQPGGSLRLSCAASGFTFSRYRMAWVRQAPGKGLEWVSNITRSGGVTRYADSVKGRFTISRDNSKNTLYLQMNSLRAEDTAVYYCARDPNRVTAISSHYGMDVWGKGTTVTVSS
VL: EIVLTQSPSTLSASVGDRVTISCRASQSISRWLAWYQQKPGQAPRLLIYDASNRATGVPARFSVSGSETDSTLTISSLEPEDFAMYYCQQRSNWPPMYTFGQGTKLEIKR
notes: also called anti-IGSF8 C5
binding result [1]: binds

B8: Antibody C12 (antibody, V domains shown)
VH: EVQLVESGGGLVQPGGSLRLSCAASGFTFSKYKMSWVRQAPGKGLEWVSTIAPSGGGTRYADSVKGRFTISRDNSKNTLYLQMNSLRAEDTAVYYCARGGHFSNPWGQGTLVTVSS
VL: DVVMTQSPLSLPVTLGQPASISCRSSQSLVHTDGDTYLNWYQQRPGQSPRRLIYKVSKRDSGVPDRFSGSGSGTDFTLKISRVEAEDVGVYYCMQGIKRPYTLGQGTKLEIKR
notes: also called anti-IGSF8 C12
binding result [1]: binds

B9: Antibody C1 (antibody, V domains shown)
VH: QVQLLQSGGGLVQPGGSLRLSCAASGFTFSRYRMSWVRQAPGKGLEWVSRISRSGGATAYADSVKGRFTISRDNSKNTLYLQMNSLRAEDTAVYYCARDATGRHYNGMDVWGRGTLVTVSS
VL: EIALTQSPSSLSASVGDRVTITCRASQTITRHLNWFQQKPGKAPNLLIHGTSALQTGVPPRFSGGGSGTDFTLTINSLQPEDFGTYYCQQSHTKPWTFGPGTKVEIKR
notes: also called anti-IGSF8 C1
binding result [1]: binds

B10: Antibody C2 (antibody, V domains shown)
VH: EVQLLQSGGGLVQPGGSLRLSCAASGFTFSSYPMNWVRQAPGKGLEWVSRISRSGGRTSYADSVKGRFTISRDNSKNTLYLQMNSLRAEDTAVYYCARDATRRHYNGMDVWGKGTTVTVSS
VL: DVVMTQSPATLSLSPGERASLSCRASRSVGKYLAWYQQKPGQAPRLLFYYASLRAGDIPSRFTASGSGTDFTLTISRLEPEDFAVYYCQQYGSSPRTFGQGTKLEMKR
notes: also called anti-IGSF8 C2
binding result [1]: binds

B11: Antibody C7 (antibody, V domains shown)
VH: EVQLEESGGGLVQPGGSLRLSCAASGFTFSSYPMNWVRQAPGKGLEWVSRISRSGGRTSYADSVKGRFTISRDNSKNTLYLQMNSLRAEDTAVYYCARDATRRHYNGMDVWGKGTTVTVSS
VL: ETTLTQSPATLSLSPGERASLSCRASRSVGKYLAWYQQKPGQAPRLLFYYASLRAGDIPSRFTASGSGTDFTLTISRLEPEDFAVYYCQQYGSSPRTFGQGTKLEMKR
notes: also called anti-IGSF8 C7
binding result [1]: binds

B12: Antibody C10 (antibody, V domains shown)
VH: EVQLLESGGGLVQPGGSLRLSCAASGFTFSRYRMYWVRQAPGKGLEWVSTISRSGGRTVYADSVKGRFTISRDNSKNTLYLQMNSLRAEDTAVYYCARDATGRHYNGMDVWGQGTLVTV
VL: ETTLTQSPATLSVSPGERATLSCRASQSVSSNVAWYQQKPGQAPRLLMFGSGTRATGIPARFSGSGSGTEFTLTISSLQSEDFAAYYCQQYNDWPSFGQGTRVEIKG
notes: also called anti-IGSF8 C10
binding result [1]: binds

B13: Antibody C11 (antibody, V domains shown)
VH: EVQLVESGGGLVQPGGSLRLSCAASGFTFSRYRMYWVRQAPGKGLEWVSSISSSGGRTKYADSVKGRFTISRDNSKNTLYLQMNSLRAEDTAVYYCARGVRYCSSPSCSRGPRYAMDVWGKGTTVTVSS
VL: DIQMTQSPSSLSASVGDRVTITCRASYVIRNDLSWYQQKPGKAPKLLIYGTSSLHNGVPSRFSGSGYGTYFTLTISSLQPEDFGTYYCLQDDKYPLTFGGGTKVEIKR
notes: also called anti-IGSF8 C11
binding result [1]: binds

B14: Antibody C4 (antibody, V domains shown)
VH: QVQLLQSGGGLVQPGGSLRLSCAASGFTFSRYRMGWVRQAPGKGLEWVSSIARSGGRTYYADSVKGRFTISRDNSKNTLYLQMNSLRAEDTAVYYCARGVRYCSSPSCSRGPRYAMDVWGKGTTVTVSS
VL: EIVMTQSPSSVSASVGDRVTITCRASQGISSWLAWYQQKPGKAPKLLIYAASSLQSGVPSRFSGSGSGTDFTLTISSLQPEDFATYYCQQANSFPITFGQGTRLEIKR
notes: also called anti-IGSF8 C4
binding result [1]: binds

B15: Antibody C9 (antibody, V domains shown)
VH: EVQLVESGGGLVQPGGSLRLSCAASGFTFSRYDMSWVRQAPGKGLEWVSRIRYSGGRTGYADSVKGRFTISRDNSKNTLYLQMNSLRAEDTAVYYCARGVRYCSSPSCSRGPRYAMDVWGKGTTVTVSS
VL: DVVMTQSPATLSLSPGEGATLSCRASQSVRGYLAWYQQKPGQAPRLLIYDTFKRATGIPARFSGSGSGADFTLTISSLEPEDSAVYYCQQYFASPWTFGQGTKVEIKR
notes: also called anti-IGSF8 C9
binding result [1]: binds
